# Assay results reported in patent EP0946727B1 (GENENTECH, INC., dated 2007).
# Experiments:
# [1] = molecular target: T1, rhesus CD11a (rhesus, UniProt H9Z8N3 26-1169); assay: blocking of rhesus lymphocyte adhesion to human keratinocytes
# T1 construct: whole, on cells; also called rhCD11a
# T1 sequence: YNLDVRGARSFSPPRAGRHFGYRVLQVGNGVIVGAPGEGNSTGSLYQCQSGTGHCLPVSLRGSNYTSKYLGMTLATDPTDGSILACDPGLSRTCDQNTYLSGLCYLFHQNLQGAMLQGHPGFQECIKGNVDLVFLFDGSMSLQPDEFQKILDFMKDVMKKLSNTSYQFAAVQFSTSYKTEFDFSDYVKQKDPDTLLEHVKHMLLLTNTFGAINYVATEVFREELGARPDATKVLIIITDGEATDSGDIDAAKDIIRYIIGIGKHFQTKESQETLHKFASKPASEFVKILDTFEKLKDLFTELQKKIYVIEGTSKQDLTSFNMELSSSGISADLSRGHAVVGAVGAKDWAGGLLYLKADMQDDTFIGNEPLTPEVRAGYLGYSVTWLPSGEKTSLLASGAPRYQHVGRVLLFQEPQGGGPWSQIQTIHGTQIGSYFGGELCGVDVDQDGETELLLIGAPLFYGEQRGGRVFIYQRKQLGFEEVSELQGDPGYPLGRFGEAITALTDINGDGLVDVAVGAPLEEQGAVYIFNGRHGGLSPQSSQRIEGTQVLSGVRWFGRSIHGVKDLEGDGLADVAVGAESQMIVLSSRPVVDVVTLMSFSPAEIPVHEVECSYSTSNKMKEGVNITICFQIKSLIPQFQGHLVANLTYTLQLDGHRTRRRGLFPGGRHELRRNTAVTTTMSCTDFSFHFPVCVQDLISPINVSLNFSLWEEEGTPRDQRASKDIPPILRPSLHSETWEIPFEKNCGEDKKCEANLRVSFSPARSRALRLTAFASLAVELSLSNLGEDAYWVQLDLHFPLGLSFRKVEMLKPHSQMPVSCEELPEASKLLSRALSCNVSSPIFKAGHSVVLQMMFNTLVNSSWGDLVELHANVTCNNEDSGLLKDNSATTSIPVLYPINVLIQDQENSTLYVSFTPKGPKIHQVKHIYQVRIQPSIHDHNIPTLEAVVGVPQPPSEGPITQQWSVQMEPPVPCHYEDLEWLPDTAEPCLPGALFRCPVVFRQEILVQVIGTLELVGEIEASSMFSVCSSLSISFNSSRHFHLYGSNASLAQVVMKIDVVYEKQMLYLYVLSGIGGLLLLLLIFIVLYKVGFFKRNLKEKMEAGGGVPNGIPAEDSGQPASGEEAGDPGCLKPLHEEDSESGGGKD
# [2] = molecular target: T1, rhesus CD11a; assay: as above; remark: listed apart in the source
# [3] = molecular target: T2, rhesus-human chimeric CD11a (human CD11a with a rhesus I-domain) (human, UniProt P20701 26-1170); assay: blocking of adhesion of Rh/HuCD11a-293 cells to human keratinocytes
# T2 construct: whole, on cells; also called Rh/HuCD11a
# T2 sequence (looked up): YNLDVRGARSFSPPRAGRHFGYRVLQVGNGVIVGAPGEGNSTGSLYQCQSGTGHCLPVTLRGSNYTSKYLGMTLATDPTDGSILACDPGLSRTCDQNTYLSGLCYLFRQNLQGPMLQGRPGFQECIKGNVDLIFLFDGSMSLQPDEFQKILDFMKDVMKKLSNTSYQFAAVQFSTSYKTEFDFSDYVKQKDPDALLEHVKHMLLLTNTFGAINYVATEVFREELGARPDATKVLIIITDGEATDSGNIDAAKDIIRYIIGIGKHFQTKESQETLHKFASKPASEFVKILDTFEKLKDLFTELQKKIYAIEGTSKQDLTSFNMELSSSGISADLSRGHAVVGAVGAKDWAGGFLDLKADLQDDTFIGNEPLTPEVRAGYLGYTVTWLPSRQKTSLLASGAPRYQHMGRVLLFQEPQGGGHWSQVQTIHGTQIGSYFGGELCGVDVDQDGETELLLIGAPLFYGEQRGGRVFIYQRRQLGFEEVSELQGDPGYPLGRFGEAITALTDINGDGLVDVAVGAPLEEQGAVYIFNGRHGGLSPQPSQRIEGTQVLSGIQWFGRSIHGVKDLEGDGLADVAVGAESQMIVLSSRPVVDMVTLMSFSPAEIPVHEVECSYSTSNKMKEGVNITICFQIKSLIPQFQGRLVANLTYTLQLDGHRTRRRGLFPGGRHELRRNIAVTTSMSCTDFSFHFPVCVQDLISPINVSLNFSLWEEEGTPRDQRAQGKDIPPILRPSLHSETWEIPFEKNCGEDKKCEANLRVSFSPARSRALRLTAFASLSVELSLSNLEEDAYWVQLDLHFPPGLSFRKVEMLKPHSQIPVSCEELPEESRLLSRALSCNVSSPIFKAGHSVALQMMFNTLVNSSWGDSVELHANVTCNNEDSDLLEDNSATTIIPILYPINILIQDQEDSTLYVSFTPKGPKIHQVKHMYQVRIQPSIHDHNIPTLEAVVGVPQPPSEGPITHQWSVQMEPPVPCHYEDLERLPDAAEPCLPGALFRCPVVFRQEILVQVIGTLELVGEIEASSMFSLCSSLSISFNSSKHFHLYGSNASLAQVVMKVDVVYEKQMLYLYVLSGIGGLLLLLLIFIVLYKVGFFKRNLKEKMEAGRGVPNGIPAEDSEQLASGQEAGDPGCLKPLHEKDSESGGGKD
# [4] = molecular target: T1, rhesus CD11a; assay: cell-based or functional assay
# [5] = molecular target: T1, rhesus CD11a; assay: blocking of rhesus lymphocyte adhesion to recombinant human ICAM-1 on plates
# [6] = molecular target: T1, rhesus CD11a; assay: saturation binding, Kd(app)
# [7] = molecular target: T2, rhesus-human chimeric CD11a (human …); assay: blocking of adhesion of Rh/HuCD11a-transfected 293 cells to human keratinocytes
# [8] = molecular target: T1, rhesus CD11a; assay: blocking of rhesus lymphocyte adhesion to recombinant human ICAM-1 on plates; remark: listed apart in the source
# [9] = molecular target: T1, rhesus CD11a; assay: cell binding, rhesus CD11a
binder,measurement,setting,value
"rhesus-binding MHM24 IgG1 (rhesusized antibody mutant) (antibody, V domains shown) VH: EVQLVESGGGLVQPGGSLRLSCAASGYSFTGHWMNWVRQAPGKGLEWVGMIAPASSSTRYNQKFKDRFTISVDKSKNTLYLQMNSLRAEDTAVYYCARGIYFYGTTYFDYWGQGTLVTVSS VL: DIQMTQSPSSLSASVGDRVTITCRASKTISKYLAWYQQKPGKAPKLLIYSGSTLQSGVPSRFSGSGSGTDFTLTISSLQPEDFATYYCQQHNEYPLTFGQGTKVEIKR",IC50,[1],119 nM
same,fold less efficacious than MHM23,[2],74 fold
same,fold down from MHM23,[3],4 fold
same,"IC50, rhesus mixed lymphocyte response (MLR)",[4],23.4 nM
same,IC50,[5],5.3 nM
same,fold down of Kd from the Kd of HuIgG1 for human CD11a,[6],~26 fold
same,IC50,[7],4.9 nM
same,fold less efficacious than MHM23,[8],4 fold
same,fold improvement over the EC50 of HuIgG1 for rhesus CD11a,[9],240 to 415 fold
same,fold weaker than the EC50 of HuIgG1 for human CD11a,[9],3 to 5 fold
